Changes are numbered by the printed parent chain.

As a reminder, the IC50 is the concentration that inhibits the measured activity by half. As usually defined, the EC50 is the midpoint of the concentration-response curve. A word on the % Inhibition: it is the change of the read-out against control, counted positive when it falls.

Experiment [1] has as its target T1, HA-GCN4 hAPRIL (amino acid residues 105-250) (human, UniProt O75888 105-250).
T1 construct: Bought (R&D Systems); also called HA-tagged GCN4 human APRIL; HA-GCN4-huAPRIL; not shown: N-terminal HA tag; GCN4 isoleucine zipper oligomerization domain
T1 sequence: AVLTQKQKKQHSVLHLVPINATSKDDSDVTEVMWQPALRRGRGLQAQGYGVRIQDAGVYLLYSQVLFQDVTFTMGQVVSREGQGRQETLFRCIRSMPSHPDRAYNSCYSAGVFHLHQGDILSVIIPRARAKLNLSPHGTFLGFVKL
Briefly: blocking ELISA; blocked: human APRIL binding to TACI-Fc.

In experiment [2] the target is T1, HA-GCN4 hAPRIL (amino acid residues …). Briefly: blocking ELISA; blocked: human APRIL binding to BCMA-Fc. The method, then: (§1) Recombinant TACI-Fc or BCMA-Fc was coated on 96 well plates in 0.1 M carbonate-bicarbonate buffer (pH 9.6), overnight at 4° C. Plates were washed three times with 1×PBST (PBS+0.025% Tween 20) followed by blocking with 1% BSA in 1×PBS, 37° C. for 1 hour. All subsequent wash steps were carried out with 1×PBST. To assess antibody blocking, either 15 ng/mL or 50 ng/mL HA-GCN4-huAPRIL was preincubated with varying antibody concentrations ranging from 0.03-30 μg/mL in binding buffer comprised of 1% BSA and 0.025% Tween-20 in 1×PBS. Preincubation was carried out at 30° C. for 1 hour with mixing. Antibody-APRIL premix with 50 ng/mL APRIL or 15 ng/mL APRIL was then added to TACI-Fc coated or BCMA-Fc coated plates, respectively, and incubated for an additional hour at 30° C. HA-tagged APRIL binding to either receptor was quantified using a goat polyclonal anti-HA tag-HRP antibody (Abcam) added at a 1:10000 dilution followed by colorimetric development using 100 μl/well of freshly prepared TMB substrate (KPL) carried out for up to 30 minutes at room temperature before quenching enzymatic reaction by the addition of 1N sulfuric acid. ELISA signal was quantified by absorbance at 450 nm. ELISA data was analyzed by non-linear regression. IC₅₀ values were calculated based on a 4 parameter fit of antibody titration curves. […] Non-blocking antibodies Aprly-1 or Aprly-5 (Enzo Biosciences) were used as negative controls. Mouse specific, blocking antibody aprily-1-1 (Adipogen) was generally used as a positive control in experiments using mouse APRIL (HA-GCN4-mAPRIL).
Assay is based on receptor blocking ELISA using recombinant human APRIL (R&D Systems) and either human TACI-Fc (FIG. 30A) or BCMA-Fc (FIG. 30B).
Background: An ELISA detects its analyte on a solid surface through an enzyme-linked reagent.

For experiment [3] the target is unchanged. The experiment is described as follows: indirect ELISA on human APRIL; column head prints IC50 (pM), legend paragraph 725 calls the values EC50. An excerpt: Purified antibodies were further characterized for APRIL binding, APRIL species cross reactivity (human APRIL vs. mouse APRIL), and receptor blocking activity using TACI-Fc. For binding, an APRIL-based indirect ELISA was used to determine by first approximation the relative affinity of purified anti-APRIL antibodies to either human APRIL or mouse APRIL. ELISA method was as generally described above. […] Blocking and wash steps were completed as described. Binding of anti-APRIL antibodies to APRIL was quantified using an 8 point dilution of test antibody that spanned over a four log scale. Antibody binding to APRIL was detected using a rabbit anti-mouse IgG (H+L)-HRP conjugate (Jackson ImmunoResearch Laboratories). Antibody binding data was analyzed by non-linear regression analysis using a 3 parameter fit to determine max binding and apparent EC₅₀ values. […] Mouse specific antibody Apry-1-1 (Adipogen) was likewise used for quantification of antibody binding to mouse APRIL.

For experiment [4] the target is unchanged. Briefly: blocking ELISA; blocked: human APRIL binding to human BCMA-Fc. Also on record: concentration or dose not given beside the values. The method, then: (§2) FIGS. 19A-19B depict the antibody inhibition of APRIL binding to TNFSF receptors TACI (FIG. 19A) and BCMA (FIG. 19B). Assay is based on blocking ELISA using recombinant human APRIL (R&D Systems) and Human TACI-Fc. Inhibition was analyzed by non-linear regression using a four parameter fit.
as §1

Experiment [5] shares this target. The experiment is described as follows: blocking ELISA, 4-parameter fit; blocked: human APRIL binding to human BCMA-Fc. The method, then:
as §2, §1

Experiment [6] has the same target. Briefly: blocking ELISA, 4-parameter fit; blocked: human APRIL binding to human TACI-Fc. As to the method: as §2, §1
The target is the same in experiment [7]. Briefly: blocking ELISA; blocked: human APRIL binding to human TACI-Fc. Also on record: concentration or dose not given beside the values. As to the method: as §2, §1
Experiment [8] has the same target. The experiment is described as follows: indirect ELISA on human APRIL.
Experiment [9] has the same target. Briefly: cell-based or functional assay.
Experiment [10] has the same target. The experiment is described as follows: blocking ELISA; blocked: human APRIL binding to human BCMA-Fc. Details: concentration or dose not given beside the values. As to the method:
as §1
The source holds these as a separate data set.

Experiment [11] shares this target. Briefly: blocking ELISA, 4-parameter fit; blocked: human APRIL binding to human BCMA-Fc. As to the method:
as §1
The source holds these as a separate data set.

Experiment [12] has the same target. Briefly: blocking ELISA, 4-parameter fit; blocked: human APRIL binding to human TACI-Fc. The method, then:
as §1
The source holds these as a separate data set.

Experiment [13] has the same target. The experiment is described as follows: blocking ELISA; blocked: human APRIL binding to human TACI-Fc. Also on record: concentration or dose not given beside the values. As to the method:
as §1
This is another data set of the same source.

B1: 4540-033 (antibody, V domains shown)
VH: QVQLVQSGAEVKKPGASVKVSCKASGYTFADYYINWVRQAPGQGLEWMGWIFPGSGSTYYAQKLQGRVTMTTDTSTSTAYMELRSLRSDDTAVYYCARGDSGRAMDYWGQGTLVTVSS
VL: DIQMTQSPSSLSASVGDRVTITCQASQDINKYLAWYQHKPGKAPKLLIHYTSTLETGVPSRFSGSGSGTDFTFTISSLQPEDIATYYCLQYDNLLTFGGGTKVEIK
On to B1, for which, in [1], the IC50 came to 0.35 nM and the “Relative Activity (normalised to 2419)” value came to 1.26. Moreover, in experiment [2], the IC50 was determined as 3.68 nM and the “Relative Activity (normalised to 2419)” value turned out to be 15.6.

B2: 3934 (antibody, V domains shown)
VH: QVQLQQSGPELVKPGASVKLSCKAAGYIFTDYTINWVKQSPGQGLEWIGWIYPGSGNRKYNDKFKGKATMTADKSSSTAYMQLSSLTSEDSAVYFCARESNYVGYYAMDYWGQGTSVTVSS
VL: DVLMTQTPLSLPVSLGDQASISCRSSQSVVNSNGNTYLEWYLQKPGQSPNLLIYKVSNRFSGVPDRFSGSGSGTDFTLKISRVEAEDLGVYYCFQGSHVPWTFGGGTKLEIK
notes: also called monoclonal antibody 3934
B2 displayed an EC50 in experiment [3] of 0.0101 nM. The “% Inhibition” value worked out at 98% in [4] and 96% in experiment [7]. The IC50 came out at 0.21 nM in [5] and 2.43 nM in experiment [6].

B3: 2419-0406 (antibody, V domains shown)
VH: QVQLVQSGAEVKKPGSSVKVSCKASGYTFTDYTIHWVRQAPGQGLEWMGWIYPLRGSINYAEKFKGRVTLTADKSTSTVYMELSSLRSEDTAVYFCARHGAYYSNAFDYWGQGTLVTVSS
VL: EIVMTQSPATLSVSPGERATLSCRASESVDNDGIRFLHWYQQKPGQAPRLLIYRASTRATGIPARFSGSGSRTEFTLTISSLQSEDFAVYYCQQSNKDPYTFGGGTKVEIK
Turning to B3, in experiment [1], the IC50 is 0.33 nM and the “Relative Activity (normalised to 2419)” value worked out at 1.2. In addition, in experiment [2], the IC50 was found to be 0.25 nM and the “Relative Activity (normalised to 2419)” value stood at 1.05.

B4: 2419-0806 (antibody, V domains shown)
VH: EVQLVQSGAEVKKPGESLKISCKASGYTFTDYTIHWVRQMPGKGLEWMGWIYPLRGSINYSPSFQGQVTISADKSISTVYLQWSSLKASDTAMYFCARHGAYYSNAFDYWGQGTLVTVSS
VL: B3 VL
The molecule B4 had an EC50 in [8] of 0.00231 nM. Moreover, the figures for the IC50 in [1] and in experiment [2] were 0.32 nM and 0.21 nM, respectively. Besides, the figures for the “Relative Activity (normalised to 2419)” value in [1] and in experiment [2] were 1.17 and 0.89, respectively.

B5: 2419-1310 (antibody, V domains shown)
VH: B3 VH with S16A, P41T, E62Q, K65Q, L70M, D73N, T76I
VL: DIVMTQSPDSLAVSLGERATINCKSSQSVDNDGIRFLHWYQQKPGQPPKLLIYRASTRESGVPDRFSGSGSGTDFTLTISSLQAEDVAVYYCQQSNKDPYTFGGGTKVEIK
On to B5, for which a half-maximal effect in [8] (EC50) was put at 0.00219 nM. Also, in experiment [1], the IC50 is 0.3 nM and the “Relative Activity (normalised to 2419)” value was 1.09. Further, in [2], the IC50 stood at 0.27 nM and the “Relative Activity (normalised to 2419)” value is 1.14.

B6: 2419-1306 (antibody, V domains shown)
VH: B3 VH with S16A, P41T, E62Q, K65Q, L70M, D73N, T76I
VL: B3 VL
For B6, the EC50 in experiment [8] is 0.003 nM. Further, in experiment [1], the 50% inhibitory concentration (IC50) stood at 0.28 nM and the “Relative Activity (normalised to 2419)” value came out at 1.03. For the same molecule, in experiment [9], the “IC50 (inhibition of APRIL-mediated BCMA NFκB signaling)” value was ~0.3 nM and the “IC50 (inhibition of APRIL-mediated TACI NFκB signaling)” value is ~0.66 nM. For the same molecule, in experiment [2], the IC50 came to 0.17 nM and the “Relative Activity (normalised to 2419)” value turned out to be 0.72.

B7: 2419-1305 (antibody, V domains shown)
VH: B3 VH with S16A, P41T, E62Q, K65Q, L70M, D73N, T76I
VL: B3 VL with T57N, A59E, R72G
In [8], B7 gave an EC50 of 0.00241 nM. Besides, in experiment [1], the half-maximal inhibitory concentration (IC50) is 0.29 nM and the “Relative Activity (normalised to 2419)” value was found to be 1.06. In experiment [2], the IC50 amounted to 0.15 nM and the “Relative Activity (normalised to 2419)” value is 0.62.

B8: monoclonal antibody 2419-0205 (antibody, IgG2, V domains shown)
VH: B3 VH with E62Q, K65Q, L70I, V79A
VL: B3 VL with T57N, A59E, R72G
B8 yielded an EC50 in [8] of 0.00226 nM. In addition, in experiment [1], the IC50 came to 0.31 nM and the “Relative Activity (normalised to 2419)” value was 1.12. In experiment [9], the “IC50 (inhibition of APRIL-mediated BCMA NFκB signaling)” value was ~0.32 nM and the “IC50 (inhibition of APRIL-mediated TACI NFκB signaling)” value is ~0.81 nM. In [2], the IC50 was 0.17 nM and the “Relative Activity (normalised to 2419)” value is 0.71.

B9: monoclonal antibody 3327 (antibody, V domains shown)
VH: EVQLQQSGPELVKPGASVKMSCKASGYSFTGYFMNWVKQSHGKSLEWIGRINPYNGDTFYNQKFKGKATLTVDKSSSTAHMELRSLTSEDSALYYCASEGDGYYWYFDVWGAGTTVTVSS
VL: not shown
For the molecule B9, the results for the “% Inhibition” value in [10] and in experiment [13] were 99% and 89%, respectively. Moreover, the IC50 was 2.35 nM in experiment [11] and 3.16 nM in experiment [12].

The values are drawn from patent US20170145086A1 (VISTERRA, published 2017).
